This data set concerns the molecule itself. In words: SEC; gel filtration on a Superdex 75 column; Streptococcus suis FakB2 (~33 kDa, known monomer) as size control. Background: Size exclusion chromatography separates by hydrodynamic size, large species first.

B1: Pseudomonas aeruginosa BioH (PA0502) S66A (enzyme)
chain: MRDHLILLPGWGLGSAPLEPLRDALHEREPHLNVLIEPLPSLDDAADWLDELDDNLPRDSWLAGWALGGMLAGELAARRGDDCRGLLTLASNPCFRVREDWPNAMPAETFEDFFEAFLLEPHLTRKRFTLLVSQGARDPRTLARQLQVALPQLEREALVAGLQLLGQLDTRAALENFRGPQLHLFAEADALVPLAAAEALLEWLPDVEVSTLAASHGLPLECPDEVAGAILRFLREGDDA
notes: BioH (PA0502), Pseudomonas aeruginosa PAO1, catalytic triad mutant; Purification is described only for the wild type; also called BioH(S66A); source: E. coli, from pET28a::bioH(S66A), purified
B1: the binding result is reported as “binds”.

B2: Pseudomonas aeruginosa BioH (PA0502) D189A (enzyme)
chain: MRDHLILLPGWGLGSAPLEPLRDALHEREPHLNVLIEPLPSLDDAADWLDELDDNLPRDSWLAGWSLGGMLAGELAARRGDDCRGLLTLASNPCFRVREDWPNAMPAETFEDFFEAFLLEPHLTRKRFTLLVSQGARDPRTLARQLQVALPQLEREALVAGLQLLGQLDTRAALENFRGPQLHLFAEAAALVPLAAAEALLEWLPDVEVSTLAASHGLPLECPDEVAGAILRFLREGDDA
notes: BioH (PA0502), Pseudomonas aeruginosa PAO1, catalytic triad mutant; Purification is described only for the wild type; also called BioH(D189A); source: E. coli, from pET28a::bioH(D189A), purified
Regarding B2, the binding result is listed as “binds”.

The values above are taken from PMC9894557, “The opportunistic pathogen Pseudomonas aeruginosa exploits bacterial biotin synthesis pathway to benefit its infectivity” (PLOS Pathogens, 2023).
